Measured values reported in paper PMC4538822, “Ribosomal protein L10(L12)4 autoregulates expression of the Bacillus subtilis rplJL operon by a transcription attenuation mechanism”.

Legend:
[1] = target: T1, L10(L12)4 complex (ribosomal proteins L10 and L12) (Bacillus subtilis (source strain of the …, UniProt P42923;P02394 1-166;1-123)); assay: filter binding; 3 mM Mg2+; yeast RNA competitor 0.2 mg/ml; apparent Kd; Filter binding: 30 mM Tris-HCl pH 7.6, 175 mM KCl, 3 mM MgCl2, 10% glycerol, 0.2 mg/ml yeast RNA, 50 ug/ml BSA, 0.01 nM RNA, 37 C 30 min; in-line probing: 50 mM Tris-HCl pH 8.3, 20 mM MgCl2, 100 mM KCl, 15% glycerol, 25 C 40 h; boundary: 37 C 30 min; details: protein: recombinant; tags: N-terminal His6 on L10; L12 native; copies: 1;4; label: 5' 32P; anti-antiterminator (AAT) structure with kink-turn
T1 sequence 1: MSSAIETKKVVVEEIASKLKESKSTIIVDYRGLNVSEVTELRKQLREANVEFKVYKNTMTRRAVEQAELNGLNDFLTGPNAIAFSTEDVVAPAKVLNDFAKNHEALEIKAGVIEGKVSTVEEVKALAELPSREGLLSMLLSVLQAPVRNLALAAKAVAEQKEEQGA
T1 sequence 2: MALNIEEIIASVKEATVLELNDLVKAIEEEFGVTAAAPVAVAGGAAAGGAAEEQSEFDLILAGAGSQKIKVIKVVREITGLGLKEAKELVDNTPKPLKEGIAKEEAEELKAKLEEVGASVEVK

[2] = target: T1, L10(L12)4 complex (ribosomal proteins …); assay: 3' boundary analysis (native gel EMSA); 1 or 3 uM L10(L12)4; Filter binding: 30 mM Tris-HCl pH 7.6, 175 mM KCl, 3 mM MgCl2, 10% glycerol, 0.2 mg/ml yeast RNA, 50 ug/ml BSA, 0.01 nM RNA, 37 C 30 min; in-line probing: 50 mM Tris-HCl pH 8.3, 20 mM MgCl2, 100 mM KCl, 15% glycerol, 25 C 40 h; boundary: 37 C 30 min; details: protein: recombinant, tags: N-terminal His6 on L10, copies: 1;4, label: 5' 32P, AAT structure complete (3' end of AAT at +72)

Row | Binder | Kd [1] [nM] | binding result [2]
1 | rplJL leader RNA +13 to +118 (structured_RNA) RNA: AAUAUCAUUUAUACCGUAGACAGUAGGGGCCUAACCGCUUAAUUAUCCUACCGAGGUGUAUAUUAUCACAGCUAUUACGUUACGUAUGCUUGUAUAUACAGCCUCC | 33 ± 10 | 
2 | rplJL leader RNA +13 to +76 (3' boundary, bound) (structured_RNA) RNA: AAUAUCAUUUAUACCGUAGACAGUAGGGGCCUAACCGCUUAAUUAUCCUACCGAGGUGUAUAUU |  | binds
